Laboratory results taken from patent publication US20230151434A1, “REAWAKENING OF DORMANT TUMOR CELLS BY MODIFIED LIPIDS DERIVED FROM STRESS ACTIVATED NEUTROPHILS” (The Wistar Institute of Anatomy and Biology, priority 2020, published 2023).

B1: S100A8/A9: recombinant S100A8/A9, heterocomplex of two S100 calcium binding proteins (calprotectin) (protein, UniProt P27005 2-89; P31725 2-113, looked up)
Protein S100-A8: PSELEKALSNLIDVYHNYSNIQGNHHALYKNDFKKMVTTECPQFVQNINIENLFRELDINSDNAINFEEFLAMVIKVGVASHKDSHKE
Protein S100-A9: ANKAPSQMERSITTIIDTFHQYSRKEGHPDTLSKKEFRQMVEAQLATFMKKEKRNEALINDIMEDLDTNQDNQLSFEECMMLMAKLIFACHEKLHENNPRGHGHSHGKGCGK

How the values were obtained:
[1] = system: LL2^cisA and AT-3^DoxA cells; assay: In vitro co-culture of chemotherapy-arrested mouse tumor cells with PMN; format: cell-based
Experimental: (§1) The KPr cell line (16) was maintained in RPMI 1640 medium (Corning) and 10% FBS (Gibco). Treatment of KPr cells with 250 nM 4-hydroxytamoxifen (4-OHT, Sigma-Aldrich) induced p53 expression. p53-induced cells (KPr^p53) were stained with CellTrace dye for 20 min at 37° C. according to the manufacturer's instructions (Life Technologies) and seeded at 8500 cells/cm^2 in culture in a T175 tissue culture-treated flask (Gibco). After 7 days, cells were detached and sorted based on the CellTrace dye intensity as proliferating (KPr^p53P, with lower CellTrace) and arrested cells (KPr^p53A, with higher-intensity CellTrace; see FIG. 1A for representative image). LL2 cells were seeded at 1000 cells/cm2 and treated for 3 days with 2.5 μM cisplatin (Selleckchem). After that, cells were stained with CellTrace and sorted as described above. OVCAR3 cell senescence was induced by treating 5×10^4 cells/cm2 with 0.5 μM cisplatin for 72 hours. After that time, cells were stained with CellTrace and sorted. A549 senescence was induced by 72-hour treatment with 4 μM cisplatin and cells were sorted after staining with CellTrace. Time points for sorting were chosen as the best to observe separation between arrested and proliferating cells. Cells were sorted on Astrios (Beckman Coulter) or Melody (Becton Dickinson) fluorescence-activated cell sorters.
(§2) Arrested tumor cells were plated at 100 cells/cm^2 in a 48-well tissue culture-treated plate (Costar) for coculture experiments. After 24 hours, PMN-MDSC or PMN were added at indicated ratios. Cocultures were maintained for 48 hours in RPMI 1640+10% FBS in the presence of mouse recombinant GM-CSF (10 ng/ml; Rocky Hill) to ensure neutrophil viability. All control conditions were in the presence of media with GM-CSF. All indicated supplements (NE, S100A8/A9, BGJ398, ICI 118-551, IL-2, MPO inhibitor, LPS, lipids, PMA, and thapsigargin 1 μM) were added to culture at the same time as PMN and maintained for 48 hours. After that, media were removed and replaced by fresh media without GM-CSF. After 1 week, GFP^+ cells in wells were counted via an inverted microscope. When lipid extracts were used, lipids were added to dormant cells in culture at 1 to 0.05 or 0.01 nmol as indicated in each experiment.

PMN = PMN viability (proportion of live PMN); format: cell-based, mouse
Experimental: FIG. 2A-FIG. 2K show neutrophil-mediated reactivation of dormant cells is regulated by stress-induced S100A8/A9. (FIG. 2A) Fold increase in the number of KPr^p53A cells cultured in the presence of PMN and S100A8/A9 or indicated cytokines relative to KPr^p53A cells cultured with PMN. Three independent experiments with 16 replicates were performed. Mean±SEM of one experiment is shown. (FIG. 2B) Fold increase in the number of KPr^p53A cells cultured in the presence of PMN and LPS relative to KPr^p53A cells cultured with PMN or alone. Means±SEM of three independent experiments with 16 replicates each are shown. (FIG. 2C) Fold increase in the number of KPr^p53A cells cultured in the presence of S100A8/A9 alone, PMN and S100A8/A9, or PMN-MDSC relative to KPr^p53A cultured alone. Means±SEM of 10 independent experiments with 16 replicates each are shown. (FIG. 2D) S100A8/A9 protein produced by PMN after treatment with indicated hormones or LPS was measured by ELISA. PMN-MDSC were isolated from spleens of Lewis lung carcinoma tumor-bearing mice. Means±SEM and results of each independent experiment with three replicates are shown. (FIG. 2E) S100A8/A9 protein secreted in vitro from PMN and PMN treated with NE with or without ICI-118; […] as measured by ELISA. Means±SEM and results of independent experiment with three replicates are shown. (FIG. 2F) Flow cytometry staining of ADRB2 receptor (dark gray) on PMN isolated from mouse spleen. Isotype control, light gray. Representative histogram of three experiments is shown. (FIG. 2G) Fold increase in the number of KPr^p53A cells cultured with PMN alone, NE alone, PMN and NE together, and PMN and NE plus ICI-118; 553 relative to KPr^p53A cells cultured alone (Ctrl). Ten independent experiments with 16 replicates for each experiment were performed. Means±SEM in a representative experiment are shown. (FIG. 2H) Number of KPr^p53A cells cultured in the presence of PMN from S100a9KO mice alone or together with NE relative to KPr^p53A cells cultured alone (ctrl). Means±SEM are reported for 16 replicates. (FIG. 2I) Percentage of live PMN after overnight incubation with NE, S100A8/A9, or LPS. Each dot represents the average of three experimental replicates of one single experiment. Means±SEM are shown for each group. (FIG. 2J) Fold increase in number of LL2^CisA cells cultured with PMN alone or together with S100A8/A9 or NE relative to LL2^CisA cultured alone (Ctrl). Means±SEM of three independent experiments with 16 replicates each are shown. […] In all panels, P values were calculated using ANOVA test with correction for multiple comparisons.
FIG. 11A-FIG. 11G show the mechanism of dormant tumor cell reactivation. […] P values were calculated by ANOVA test with correction for multiple comparisons. […]

KPr^p53A cells = assay: In vitro co-culture of dormant tumor cells with PMN (count of GFP+ cells); format: cell-based, mouse
Experimental: as §1, §2

Row | Molecule | NE- and PMN-induced reactivation of dormant mouse tumor cells, effect of β-blocker ([1]; PMN and NE plus ICI-118,551) | cytotoxic effect on PMN (PMN; proportion of live PMN after exposure) | proliferation of KPr^p53A cells induced by PMN and NE, effect of β-blocker (KPr^p53A cells; PMN and NE plus ICI-118,551) | proliferation of arrested mouse tumor cells cultured with mouse PMN plus supplement ([1]; LL2^cisA, AT-3^DoxA) | PMN viability (PMN) | reactivation/proliferation of KPr^p53A cells, supplement alone (KPr^p53A cells; absence of PMN) | reactivation of KPr^p53A cells cultured with MON plus supplement (KPr^p53A cells; monocytes instead of PMN) | reactivation/proliferation of KPr^p53A cells cultured with PMN plus supplement (KPr^p53A cells; supplement added with PMN, LPS 0.5 to 2 μg/ml)
1 | Cc1ccc(OCC(O)C(C)NC(C)C)c2c1CCC2 (centres unmarked) [ICI-118,551] | this effect was abrogated | no cytotoxic effect on PMN | this effect was abrogated |  |  |  |  | 
2 | B1 |  |  |  | activated proliferation | did not affect PMN viability | no effect | failed to reactivate KPr^p53A cells | enabled PMN to induce proliferation of KPr^p53A cells
